Target: tissue factor (TF), endogenous on human cells (human (endogenous in HMVEC, HUVEC, HAEC, MDA-MB-231)) (UniProt P13726)
Sequence of UniProt P13726 (P13726 33-295): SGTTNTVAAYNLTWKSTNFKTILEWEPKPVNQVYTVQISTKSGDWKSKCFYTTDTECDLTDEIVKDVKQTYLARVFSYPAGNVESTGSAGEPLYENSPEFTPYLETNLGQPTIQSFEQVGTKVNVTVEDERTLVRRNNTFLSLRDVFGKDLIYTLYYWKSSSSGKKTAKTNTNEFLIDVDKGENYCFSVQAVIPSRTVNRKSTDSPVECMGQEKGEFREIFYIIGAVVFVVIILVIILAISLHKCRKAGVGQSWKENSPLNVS

Substance: mfVII/NLS-SnCe6 conjugate (ligand)
- clonogenic assay of angiogenic HMVEC after fVII-tPDT with fVII/NLS-SnCe6 (0.0, 0.5, 1 and 2 μM SnCe6, 635 nm laser light at 36 J/cm^2); EC50 of SnCe6 for killing: 31 nM

— paper PMC5306358
